Assay results reported in the supplement of paper PMC12042874.
± gives the uncertainty stated by the source.

assay: amyloid nucleation score (Sup35N fusion, yeast selection) (log enrichment); library NNK1; higher = more nucleation; inactive = no reads after selection
Procedure, shortened: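 Plasmid inserts were Illumina-sequenced at input and output from psi-negative yeast expressing Sup35N fused to peptides of 20 random codons. The yeast were induced with 100 μM copper sulfate for 24 hours and grown 7 days at 30°C on medium lacking adenine and uracil, and sequences with under 100 input reads were excluded. Nucleation score is the DiMSum log enrichment of output over input reads, centred on the mode score of non-aggregating sequences.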

Substance | amyloid nucleation score
LLGDMMALQAYSELLRFMSG | -0.234 ± 0.61
RGGMIPGYTPAMYHWMLFKS | 0.185 ± 0.47
PCSVVV | -0.246 ± 0.32
TMGVTIYGCWCDLNTSLVFG | -0.104 ± 0.24
YPVVHDM | -0.426 ± 0.56
CYKLGYGFVHFSAIMVNIIS | -1.22 ± 1.7
WAICDSLLVLVSRKGSASSP | -1.56 ± 1.4
LAKATGHVVCMSRVRRPVGQ | inactive
SPWSSNRYVLNSFYLSHPRR | -0.308 ± 0.32
WSTHRQESFALYSKCMEVRR | 0.186 ± 0.28
RISTCIEILYDS | -0.587 ± 0.37
LSYRSSRFGVS | 0.3 ± 0.64
CFPTWYLLLDCWVQFPAHTK | 2.56 ± 0.16
LLGVSAF | -0.718 ± 0.68
TRWQITDPYSPCTWSCSWTQ | 0.906 ± 1
SWRHMFYGVILGWHICSSGS | 0.925 ± 0.28
VHKAGDFNVTAFVNSNVFVS | inactive
IPRYCRRNMADSAIV | 0.923 ± 0.62
YGTNRSWGDMEKISSHKRCW | -0.321 ± 0.34
LDQIQIFSEIGVFRLVCQHI | -0.164 ± 0.64
MLFCVTRSVFSENCSLSLCT | inactive
LSTGLKFACATRVSYALVRV | 0.117 ± 0.5
YKSNKWSPSQKRKG | -1.37 ± 2.7
PALNILNHYLLCKDPLFVRV | 0.348 ± 0.37
CNSVDVVLISATACYSWSTL | 0.552 ± 0.48

Substance | amyloid nucleation score
VGTFTTELKVVGRIDIVWAR | 0.723 ± 0.46
CCLHSAFSNNARILFMALRS | 0.861 ± 0.84
CWPRG | 0.326 ± 0.55
ILYCLNLVIHLCQRYSLILR | 1.97 ± 0.56
LSCPRLVTLCCNLWDKYSLW | 0.955 ± 0.28
SHEGIIMLMLTHQFSW | 2.07 ± 0.14
ILRNGRTYGAEVLQQLWNVL | -0.418 ± 0.73
DMQIWFLYDCI | inactive
FVKGRGNKTQVWHESVYKDA | -0.203 ± 0.54
RYISYAKCRNYNGLIMYYLY | 2.52 ± 0.11
LSVQTWFGLSACYTGQAKYS | 0.171 ± 1.2
GRMNKNYA | inactive
IFEIAESDLVYDHFSHYFKR | -0.033 ± 0.67
RPFLIIKLLGVGLSVKPNCG | -0.158 ± 0.64
VALLTNWFTGPQPLTMFTRV | 1.14 ± 0.9
LYVLYAIRFLSFCSFWRYLI | -1.15 ± 0.51
RCNDAFTFTCRPGWMWKWGK | 1.75 ± 0.18
SIPNSAQHFTSPPARFHSTG | 0.042 ± 0.69
SISAASCIHFRMDVVCKTDF | -0.519 ± 0.41
TYCMYDYRKAVGEGWQFR | 0.124 ± 0.38
RSIPSMEVSVMK | -0.805 ± 0.73
SEVQAPHIRCINIRALYLRN | 2.08 ± 0.39
FAEFKDICMRE | 0.978 ± 0.74
EGMAARSWDCMYVWG | 0.35 ± 0.42
LYKLTEFQAYKVIRPSACCV | -1.13 ± 2.4

Substance | amyloid nucleation score
APDDSRQCSETESSGFLTHW | 0.366 ± 0.47
SFLCAFICHYTDVFVHLARS | 1.49 ± 0.54
VASFRMG | 1.37 ± 0.14
GSTFVGAIKQPIVCWIESGN | -1.32 ± 1.2
LRKTFF | 0.38 ± 0.33
EHKWAANLDDMVHLDRHNMQ | 0.435 ± 0.72
RCDRTGQRRALDRGSCFLVE | -0.46 ± 1.1
RKLFDCGINACSLRYVTSYR | inactive
IIQCNVTYAS | 3.63 ± 0.12
FTDTEYLQGLDIGVGMERLY | -0.218 ± 0.65
IKIIAFFWLCSYHGWISWKS | -1.5 ± 1.1
RQDVT | 0.281 ± 0.61
RLTFVYHRMERVKKDYCS | inactive
RWSAFSVYAWGAYKLRC | 2.41 ± 0.11
LAEVQRKTR | -0.291 ± 0.59
ALNLKCIRLSGV | 0.496 ± 0.47
FCNTLCAFW | 1.91 ± 0.22
FFCEIVMYGWSIM | 2.97 ± 0.14
LVQVIVHFGIYIISAKGQGT | 3.1 ± 0.15
LNWMCTNWAMFFYTQVILQY | -0.488 ± 1.1
RWAWVDYNLCRVCLTKYS | -0.161 ± 0.58
VNIRRRTLFS | 0.023 ± 0.3
WGICDLKVCVQPCPSSNARI | -0.059 ± 0.57
LLTSMSSGLVDYR | inactive
WRMFGGRSEQSFIVPCRLLG | 0.535 ± 1.2

Substance | amyloid nucleation score
VRKEKRNCAGLGRTVVWVRG | 0.461 ± 0.35
VEKRKTFRLGAFGEVRVICS | 0.461 ± 0.99
FFLILRVRLYCTSICQAYAN | 0.451 ± 0.48
VNTVMGTMQLKLCHKLRIVG | 0.19 ± 0.71
SNFSYMSCLLGYLPLILFAA | 0.014 ± 0.21
ESFLASMLRIGMCLPKQVMW | -0.096 ± 0.66
VMTRNTCVQVGLEGTSQFAG | 0.435 ± 0.26
CLRGLNAPLYNRCFAGILLG | -0.6 ± 0.36
KVWSLKLSFGSLNMPMGYV | 0.399 ± 0.26
GRKRYKRATHH | -0.593 ± 1.5
IRYYVVSSVVDSNS | -0.142 ± 0.31
RMIIYNKYRCNSYLTNMGFG | 2 ± 0.34
SVRVPWLASFCSKFMSGAYI | 0.058 ± 0.41
RSIFSWSTR | 0.641 ± 0.42
LLLYPRMGDRGTYYGMSGIR | -1.01 ± 2.7
YRLDFGWTMH | 0.3 ± 0.31
VTIYFILRNGGRVSESLNPW | 7.19 ± 0.084
WVAWTYMENLSCLYFETATM | -0.593 ± 0.57
MNCVLIVVPRMTLGNYRSSW | 5.21 ± 0.053
ALWVNVMQARAIGSGFGRTK | -0.415 ± 0.58
TGLCDRLRSLEGAAAVR | 0.514 ± 0.49
KLLPSKLCNASRFSFFYKES | -0.82 ± 0.81
CTGIWSLLSCTTFRHIATVV | -0.469 ± 1.7
VNSCFSQYYKGHPTLMHERL | 0.01 ± 0.39
YGGLEVSLGALQNVGVKPYT | -0.189 ± 1.1

Substance | amyloid nucleation score
MLGFYKSWCFNFSNMNVH | 0.979 ± 0.57
LIYFKGSS | 0.399 ± 0.79
GSRRDRISLRSQRVCILEKG | 1.95 ± 0.6
RQDQLFPICEDSTT | 0.612 ± 0.97
GHCGPEKREIDVAGVWVERS | -0.098 ± 1.3
FTVSLTSLYYISITGLLARR | -0.115 ± 0.52
RKFGPMG | 0.848 ± 1
SVSYTPVLHCCYCIMKWNPW | 5.19 ± 0.062
SMCNEVDGTDGYAAIGLYMY | -1.65 ± 2.4
LTEYFSSVVEYDGYPVLSE | -0.91 ± 1
RIYRFLKLLIRGGVISVARY | -0.758 ± 1.9
QSSSLHKHSFTHVVSQNEGG | 0.543 ± 0.26
VYIYRSVPNTAPAPMIEKKD | -0.048 ± 1.2
CARSVCKSQYSSMSMPYLIV | 0.782 ± 0.39
DLWWGRVRYG | 2.64 ± 0.097
WVLTVVFVDKWREAYMYATF | inactive
ILPKWAK | 0.7 ± 0.97
SSIVIRTCKWYGTVCIWELL | -0.339 ± 0.39
YCVTSMVRRLVKMLYDCRGV | inactive
RIRLVCHCPFSYRLAVPLSE | 3.99 ± 0.1
SGMCTYL | 0.513 ± 0.33
MVCLVVSFGQCASTVFLFHL | 1.83 ± 0.49
SACSESSVIWTNFH | 0.292 ± 0.39
WASELVRHHNDKINCSLRCG | -0.253 ± 0.84
MSYMCLNRYILVGYCWVQTT | 0.312 ± 0.66

Substance | amyloid nucleation score
ECRVCL | -0.807 ± 2.4
FQYEWNLVIW | -0.074 ± 0.4
RARGAIYTVT | -0.894 ± 2.4
SVQRAV | -0.489 ± 1.7
TNMMYVYFKVI | inactive
RNSITEIPCPEMYSNNRLAF | 1.13 ± 0.12
FSKVGCDKVIRPGKVPFRSF | 0.491 ± 0.9
VVLNCYIYVIPA | 3.39 ± 0.13
GFSLSPRAWRTGGVWAECAE | 0.7 ± 0.82
RAQYYYICRWRYYTWPVPR | -0.515 ± 1
VVLCSVLTFDPSAEHLCTLV | 6.44 ± 0.066
HSGTVVYNMEMKKINSCYLL | 2.58 ± 0.1
NKYQLHMILKGFQGSAYWSV | -0.453 ± 0.81
SGNCQSRFVVNGNHKC | 0.371 ± 0.5
TSFCGLVAPQLCKFSMRSLE | -0.504 ± 0.47
YWRNKGVVCGLCYDIVR | -0.019 ± 0.97
QLRYKIVMHRQSEHKPSLLN | -0.855 ± 1.5
RDAEWTMIIIIARNQMKAFS | -0.162 ± 0.4
DVDTRRT | inactive
DSTSDMLHLIIRTMISLISR | -0.257 ± 0.35
SLKFRLYSPNAMALNPKALF | 0.581 ± 0.21
GDSYVRHRMDP | inactive
YFGYRCDYRCNPPLAPLCAN | 0.515 ± 0.43
PFVGTIFVSGSGTSMENGIC | -0.601 ± 0.47
FVKNSKHYRPFLNGSKRM | 0.475 ± 0.83

Substance | amyloid nucleation score
RESASSNGYVYILCMQRVPR | 0.102 ± 0.34
LNGPTVTKECRGAYMVMPGT | -0.431 ± 1.1
LYANNMLSGILCNGFSTITS | -0.339 ± 0.63
AALENAGWLMAMANKRPSKR | -0.614 ± 0.64
DNSLYE | -2.11 ± 2.7
VYRLRLVFKVSYFIIECHKG | -0.851 ± 0.4
CSYGARGIWATESIVANKSV | inactive
RHYGGAFQRLYRMSGPMT | -1.05 ± 0.96
RPNCIVINGVKWYSAYWIGI | -0.915 ± 0.67
VQETYGYLYRNNIDRGGHIN | 2.07 ± 0.56
AMLSIVSISAS | 1.39 ± 0.69
MLYPNNKSVVLVVMELRPNA | 0.648 ± 0.52
YPSIGLRVLLNYCDPTDTGA | 0.255 ± 1.2
MCINIKKNMFR | 4.74 ± 0.048
NWGWGGEFRRNMFRIVS | inactive
FRLLRSK | 0.644 ± 0.56
ALLNVQVRGYVGLGR | 1.4 ± 0.52
RRDSYFCVWYFWGPDEGCPF | 4.46 ± 0.1
DPCSVGFVPPMVLGSLGGDV | -0.248 ± 0.71
